Data taken from patent US9518103B2, “Optogenetic probes for measuring membrane potential” (President and Fellows of Harvard College, priority 2014, dated 2016).
Several values for one entry are separate records, joined by “and”; a condition that tells them apart may be missing. Identical values can stand only once. Like-named read-outs stand apart in the source and are kept apart here.

Columns and labels:
HEK293T cells = assay: Simultaneous whole-cell patch clamp electrophysiology and fluorescence in HEK cells (brightness, voltage sensitivity, speed); format: cell-based; conditions: for Brightness (λexc = 640 nm) 0.7 W/cm^2 / Brightness (λexc = 640 nm) 800 W/cm^2 / Sensitivity (ΔF/F per 100 mV): HEK293 cells; for voltage sensitivity (ΔF/F per 100 mV) / brightness relative to wild-type Arch: HEK cells; for brightness compared with corresponding double mutants: eGFP fusions in HEK cells, exc. 640 nm
Experimental: Simultaneous electrophysiology and fluorescence in HEK cells: HEK293T cells (ATCC CRL-11268) were cultured and transfected following standard protocols.^10 Briefly, HEK-293 cells were grown at 37° C., 5% CO2, in DMEM supplemented with 10% FBS and penicillin-streptomycin. Plasmids were transfected using Transit 293T (Mirus) following the manufacturer's instructions, and assayed 48 hours later. The day before recording, cells were re-plated onto glass-bottom dishes (MatTek) at a density of ˜10,000 cells/cm^2.
Cells were supplemented with retinal by diluting stock retinal solutions (40 mM, DMSO) in growth medium to a final concentration of 5 μM, and then returning the cells to the incubator for 0.5-1 hour. All imaging and electrophysiology were performed in Tyrode buffer (containing, in mM: 125 NaCl, 2.5 KCl, 3 CaCl2, 1 MgCl2, 10 HEPES, 30 glucose pH 7.3, and adjusted to 305-310 mOsm with sucrose). A gap junction blocker, 2-aminoethoxydiphenyl borate (50 μM, Sigma), was added to eliminate electrical coupling between cells.
Filamented glass micropipettes (WPI) were pulled to a tip resistance of 5-10 MΩ, and filled with internal solution containing 125 mM potassium gluconate, 8 mM NaCl, 0.6 mM MgCl2, 0.1 mM CaCl2, 1 mM EGTA, 10 mM HEPES, 4 mM Mg-ATP, 0.4 mM Na-GTP (pH 7.3); adjusted to 295 mOsm with sucrose. Pipettes were positioned with a Sutter MP285 manipulator. Whole-cell, voltage and current clamp recordings were acquired using an […] 700B amplifier (Molecular Devices), filtered at 2 kHz with the internal Bessel filter and digitized with a National Instruments PCIE-6323 acquisition board at 5-10 kHz. Data was only acquired from HEK cells having reversal potentials between −10 and −40 mV, access resistance<25 MΩ and membrane resistance>0.5 GΩ.
Simultaneous whole-cell patch clamp recordings and fluorescence recordings were acquired on a home-built, inverted epifluorescence microscope, described previously^10 and described below in “Apparatus”. For step response measurements, voltage clamp electronics were compensated 90-95%. We examined variants of QuasAr1 with mutations at position 95 (Asn, Cys, Gin, His and Tyr) and position 106 (Arg, Asp, Asn, Cys, Glu, His, Lys and Tyr). These experiments confirmed that histidine at position 106 provided undetectable photocurrent, and the best combination of improved voltage sensitivity, and fast kinetics.
We compared the fluorescence, voltage sensitivity, and speed of the QuasArs to wild-type Arch in HEK cells, using epifluorescence microscopy and whole-cell patch clamp electrophysiology. Under low intensity illumination (640 nm, 500 mW/cm^2), QuasAr1 was 15-fold brighter than wild-type Arch, and QuasAr2 was 3.3-fold brighter (FIG. 1B; Methods).

HEK293 cells = assay: Optical crosstalk of blue illumination into QuasAr fluorescence; format: cell-based; conditions: continuous 640 nm 300 W/cm^2
Source text: FIGS. 5A-5B show the quantification of optical crosstalk of blue illumination into QuasAr fluorescence. Illumination sufficient to induce high-frequency trains of action potentials (488 nm, 140 mW/cm2) perturbed fluorescence of QuasArs by <1%. […] HEK293 cells expressing QuasAr1 or QuasAr2 were exposed to continuous excitation at 640 nm (300 W/cm^2) and pulses of illumination at 488 nm (50 ms, 5 Hz). The intensity of the blue pulses increased from 0.06 to 1.8 W/cm^2. […] Illumination with blue light at typical intensity used to excite a blue-light activator (CheRiff) (0.2 W/cm^2) increased QuasAr1 fluorescence by 1.1% and QuasAr2 fluorescence by 0.6%. Illumination at with blue light at 1 W/cm^2 increased QuasAr1 fluorescence by 3.4% and QuasAr2 fluorescence by 2.4%. Error bars represent s.e.m. for n=5 cells for each QuasAr.

[1] = Quantum yield of solubilized protein (Cy5 reference); format: physicochemical; conditions: for Quantum yield / Quantum yield relative to Arch D95N: excitation at 600 nm
Experimental: Solubilization and spectroscopic characterization of QuasAr1 and QuasAr: E. coli expressing QuasAr1 and QuasAr2 were grown in 12 mL LB medium with 200 μg/ml ampicillin overnight. The next day, 12 mL of liquid LB medium containing 50 μM retinal, 200 μg/ml ampicillin and 0.1% arabinose was added into the overnight culture, followed by additional incubation at 37° C. for 4 hours. The cell pellets were collected by centrifugation and lysed by suspension in B-PER solution (Pierce). The cytoplasmic fraction was discarded after centrifugation and the colored insoluble fraction was resuspended in phosphate buffered saline (PBS) containing 1.5% n-dodecyl-β-D-maltopyranoside (Affymetrix, Inc.). The suspension was homogenized by an ultrasonic homogenizer and centrifuged (17,000 g for 15 mins, 4° C.). The solubilized protein in the supernatant was used for in vitro spectroscopic characterization.
Absorption spectra were recorded on a DU-800 UV-visible spectrophotometer (Beckman) and fluorescence spectra were recorded on a Safire2 plate reader (Tecan). Cy5 carboxylic acid (Cyandye) was used as the reference for quantum yield measurement. Quantum yield measurements were performed on a series of dilutions of each protein solution and standard, with absorbance values ranging from 0.01 to 0.05 at 600 nm. The fluorescence emission spectra of each dilution were recorded with excitation at 600 nm and the total fluorescence intensities obtained by integration. Integrated fluorescence intensity vs. absorbance was plotted for each protein and each standard. Quantum yields, Φ, were determined from the slopes (S) of each line using the equation: Φprotein=Φstandard×(Sprotein/Sstandard).

[2] = system: cultured rat hippocampal neurons; conditions: for signal-to-noise ratio (SNR) for single APs: 640 nm; for photobleaching time constant: continuous illumination 640 nm; for broadening of optically recorded AP relative to electrical waveform at 70% maximum depolarization: room temperature, 2 kHz frame rate; for r.m.s. temporal jitter of AP timing relative to patch clamp: sub-frame interpolation
[3] = low intensity illumination (640 nm, 500 mW/cm^2)

| Molecule | τdown (+30 mV to −70 mV) % τ1 (HEK293T cells; 23° C.) | τdown (+30 mV to −70 mV) τ1 (HEK293T cells; 23° C.) | τdown (+30 mV to −70 mV) τ2 (HEK293T cells; 23° C.) | τup (−70 mV to +30 mV) % τ1 (HEK293T cells; 23° C.) | τup (−70 mV to +30 mV) τ1 (HEK293T cells; 23° C.) | τup (−70 mV to +30 mV) τ2 (HEK293T cells; 23° C.) | Brightness (λexc = 640 nm) 0.7 W/cm^2 (HEK293T cells; 23° C.) | Brightness (λexc = 640 nm) 800 W/cm^2 (HEK293T cells; 23° C.) | Sensitivity (ΔF/F per 100 mV) (HEK293T cells; 23° C.) | step response time constant (single or first component) (HEK293T cells; 34° C., step −70 mV to +30 mV) | voltage sensitivity (ΔF/F per 100 mV) (HEK293T cells) | brightness compared with corresponding double mutants (HEK293T cells) | brightness relative to wild-type Arch (HEK293T cells; high intensity (>100 W/cm^2)) | brightness relative to wild-type Arch (HEK293T cells; [3]) | increase of fluorescence by blue light (HEK293 cells; 488 nm 0.2 W/cm^2) | increase of fluorescence by blue light (HEK293 cells; 488 nm 1 W/cm^2) | fluorescence quantum yield enhanced relative to Arch(D95N) [1] | Quantum yield [1] | Quantum yield relative to Arch D95N [1] | equivalent electrical noise level ([2]; 300 W/cm^2) | other results |
| --- | --- | --- | --- | --- | --- | --- | --- | --- | --- | --- | --- | --- | --- | --- | --- | --- | --- | --- | --- | --- | --- |
| QuasAr1: Archaerhodopsin 3 variant with mutations P60S, T80S, D95H, D106H, F161V; genetically encoded voltage indicator (protein) MDPIALQAGYDLLGDGRPETLWLGIGTLLMLIGTFYFLVRGWGVTDKDAREYYAVTILVSGIASAAYLSMFFGIGLTEVSVGGEMLDIYYARYAHWLFTTPLLLLHLALLAKVDRVTIGTLVGVDALMIVTGLIGALSHTAIARYSWWLFSTICMIVVLYVLATSLRSAAKERGPEVASTFNTLTALVLVLWTAYPILWIIGTEGAGVVGLGIETLLFMVLDVTAKVGFGFILLRSRAILGDTEAPEPSAGADVSAAD | 88% | 0.07 ms | 1.9 ms | 94% | 0.05 ms | 3.2 ms | 15.2 | 10.3 | 33% | ~0.05 ms | 32±3% | significantly brighter than the corresponding double mutants | 2.5 fold | 15 fold | 1.1% | 3.4% | 19 fold | 8 × 10^−3 | 19 | 4.3 mV | response faster than fastest previously reported GEVIs (HEK293T cells): more than 10 fold; response time (HEK293T cells): 50 μs; voltage sensitivity compared with QuasAr2 (HEK293T cells): three-fold less than the sensitivity of QuasAr2; step response time constant (single or first component) (HEK293T cells; room temperature (23° C.), step −70 mV to +30 mV): < 0.05 ms and 0.053 ± 0.002 ms; signal-to-noise ratio (SNR) for single APs ([2]; 300 W/cm^2, 1 kHz frame rate): 21±2; signal-to-noise ratio (SNR) for single APs ([2]; 800 W/cm^2, 1 kHz frame rate): 32±4; equivalent electrical noise level ([2]; 800 W/cm^2): 3.0 mV; photobleaching time constant ([2]; 300 W/cm^2): 440 s; r.m.s. error in timing ([2]; optically induced APs, soma, sub-frame interpolation vs patch clamp): 54 μs; broadening of optically recorded AP relative to electrical waveform at 70% maximum depolarization ([2]; mean±s.d.): did not introduce detectable broadening; r.m.s. temporal jitter of AP timing relative to patch clamp [2]: 44 μs |
| QuasAr2: Archaerhodopsin 3 variant with mutations P60S, T80S, D95Q, D106H, F161V; genetically encoded voltage indicator (protein) MDPIALQAGYDLLGDGRPETLWLGIGTLLMLIGTFYFLVRGWGVTDKDAREYYAVTILVSGIASAAYLSMFFGIGLTEVSVGGEMLDIYYARYAQWLFTTPLLLLHLALLAKVDRVTIGTLVGVDALMIVTGLIGALSHTAIARYSWWLFSTICMIVVLYVLATSLRSAAKERGPEVASTFNTLTALVLVLWTAYPILWIIGTEGAGVVGLGIETLLFMVLDVTAKVGFGFILLRSRAILGDTEAPEPSAGADVSAAD | 80% | 1.0 ms | 15.9 ms | 68% | 1.2 ms | 11.8 ms | 3.4 | 3.4 | 90% | 0.3 ± 0.05 ms | 90±2% | significantly brighter than the corresponding double mutants | comparable | 3.3 fold | 0.6% | 2.4% | 10 fold | 4 × 10^−3 | 10 | 2.2 mV | weight of first component of bi-exponential step response (HEK293T cells; 23° C.): 68%; weight of second component of bi-exponential step response (HEK293T cells; 23° C.): 32%; step response time constant (second component) (HEK293T cells; 23° C., step −70 mV to +30 mV): 11.8 ± 1.5 ms; step response time constant (second component) (HEK293T cells; 34° C.): 3.2 ± 0.4 ms; weight of first component of bi-exponential step response (HEK293T cells; 34° C.): 62%; weight of second component of bi-exponential step response (HEK293T cells; 34° C.): 38%; τdown (+30 mV to −70 mV) % τ1 (HEK293T cells; 34° C.): 73%; τdown (+30 mV to −70 mV) τ1 (HEK293T cells; 34° C.): 0.3 ms; τdown (+30 mV to −70 mV) τ2 (HEK293T cells; 34° C.): 4.0 ms; τup (−70 mV to +30 mV) % τ1 (HEK293T cells; 34° C.): 62%; τup (−70 mV to +30 mV) τ1 (HEK293T cells; 34° C.): 0.3 ms; τup (−70 mV to +30 mV) τ2 (HEK293T cells; 34° C.): 3.2 ms; single-trial SNR ([2]; 34° C., 640 nm 300 W/cm^2): 41±3; broadening of optically recorded AP relative to electrical waveform ([2]; 34° C., mean±s.d.): 180±120 μs; signal-to-noise ratio (SNR) for single APs ([2]; 300 W/cm^2, 1 kHz frame rate): 41±4; equivalent electrical noise level ([2]; 800 W/cm^2): 1.5 mV; photobleaching time constant ([2]; 300 W/cm^2): 1020 s; fidelity of AP reporting (red light phototoxicity test) ([2]; continuous illumination at 300 W/cm^2, 30 min): 100%; broadening of optically recorded AP relative to electrical waveform at 70% maximum depolarization ([2]; mean±s.d.): 650±150 μs; r.m.s. temporal jitter of AP timing relative to patch clamp [2]: 61 μs |
